Target: the molecule itself
Assay: cross-linking

B1: IMPDH1 (enzyme)
chain: not shown
With B1 as the protein, how does the “stoichiometry N” value read?
The value was 4.
